The text below walks through data of the DeepSol protein solubility set.

The data set can be described thus: soluble on expression in E. coli; label from the status in PepcDB or PDB records.
With “MASSSSTLPLHMYIRPLIIEDLKQILNLESQGFPPNERASEEIISFRLINCPELCSGLFIREIEGKEVKKETLIGHIMGTKIPHEYITIESMGKLQVESSNHIGIHSVVIKPEYQKKNLATLLLTDYIQKLSNQEIGNKIVLIAHEPLIPFYERVGFKIIAENTNVAKDKNFAEQKWIDMERELIKEEYDN”, the “soluble on expression in E. coli” value is “soluble”. The same measure for “MRNKADNKKRNFLTHSEIESLLKAANTGPHATRNYCLILLCFIHGFRASEICRLRISDIDLKAKCIYIHRLKKGFSTTHPLLNKEVQALKNWLSIRTSYPHAESEWVFLSRKGNPLSRQQFYHIISTSGGNAGLSLEIHPHMLRYSCGFALANMGIDTRLI”: “not soluble”. Under “MAEHPIQGLMETAMESIKEMVDVNTIVGDAVQAPDGTVIIPISKVTFGFAAGGGEFASCCSVDEKGEDSSDDSSKPEIKFPFAGGSGAGVSINPVAFMVVGQGQIKLLPVNINSSLEKILDLIPEIIEKTKDSVKKNLKVKKEIKPGNGESCAKSSKEDENE” stands “not soluble”.

As to “MTTYPADTPIITQPPSPDSPSSSNGSSTSLSENLNNNSVSNQIEYVNQNNNSDNFTVGLGFLGASGNYGNYSSHLNNNLSISQNQSVSLNSSSSSVGAGLTPGNGSVGSTSNSSSAASSIQNIGLNSSLINSNTNNLSSSSHSMSGSNNNNSNNNVVNNYLTVYGNNGSSGGGSGSGGGSGPGADSPRIHCCRPCCPYSHHRRLCDPCYCSNRPESHRDSSSSEEVNDAQSDENTYFQFDFIGVDGHHARRVLPPSWRILRNSKAESSDESSLSDAVQTVDLPKIPQKKIRCVYSIDAEEIEGKKCMLECIRSSCLPRYVECHRRRRCSRKQRCHTTTQPPSPTTESLPTSTTTYEMNTTSLETSTTDISTITSTEEPISTTVKTHEQSSTSGMEFSTMSTTYEPITTTLETSTTDISIITSTEEPDTSTTTESNEQSSTTGMEFSTMSTTYEPITTSLETSTTDMLTNTSTEEPDISTTIEPNAQSTTYEMESSTVSVTYEPETTSLETSSTKVSSTTATGEPASTTMEANEHSSTFETESSTVPATNEPITTSFIPSTTDLSIITSTEEAKISTTMETDELSTTTESSYSTTQFTTFKIPTSSFSTLPMEGTSTKEQTTLSTEETSSATTATIFEKLSTTLFFEETQVTSTSDFTSSPRSIETTRVIEFDTSTELQTTSKTSTTTEDTTTVGTTTEMEMRRFWRLFG”, the “soluble on expression in E. coli” value is recorded as “not soluble”.

For the sequence “MIFGVSRTAGMQPHQNKLPPAFPICPPRFLQNKPPAPPLREAVRHSEYPDPRYEMTFQTAFAPPRFEYSGLTLNQDKATKPQTV”, the “soluble on expression in E. coli” value is given as “not soluble”. Consider “MGSDKIHHHHHHMVDSLKKPGFEEIRPGVKVPAKETLLTPRFYTTDFDEMARMDISVNEDELLAILEEFRTDYNRHHFVRDAEFEKSWDHIDGDTRRLFVEFLERSCTAEFSGFLLYKELGRRLKDKSPVLAECFNLMSRDEARHAGFLNKAMSDFNLSLDLGFLTKSRNYTFFKPKFIFYATYLSEKIGYWRYITIYRHLEAHPEDRIYPIFRFFENWCQDENRHGDFFDAIMKSQPQMLNDWKAKLWSRFFLLSVFATMYLNDIQRKDFYASIGLDARDYDIYVIKKTNETAGRVFPVILDVDSPEFYERLDICVENSEKLSAIASSNTPKFLQFFQKLPVLASTGWQLLRLYLMKPIDAVSAQGAAR”, for which the “soluble on expression in E. coli” value is on record as “not soluble”. The same measure for “MAHHHHHHMDPYPPSRVEVTVDDSFGRLEGLAEEHSIIEETWRKLMKGLERKILHNGLKFRLHNVVQYDNGKCHLQLGITDYKSSMGVATNVDYFLRSTSDGGTDRRKYLARALGIECFTTTSDEKAVMFCRSSLVSEYPGYYCFPGGHPEPQDILCQLPLSGPATGNHNNIDHNHNSVQNSDLLNDRLRREEAVSQLSGVNPEVIVQHLFDSAVMEVADELGVERTACRNRGLLSIVENMKNMKPDACFWVEVNQTAAEVQARFDSRVGFDAFESVPHSLVVVHLDDIVDCEGAELFIKDCLGGKVTPPSVACWLHGMACYRSLRGTLGKAQTHSFA”: “not soluble”; for “MAQLFFKYGAMNSGKTIEILKVAHNYEEQDKPVVLMTSGLDTRDGVGKVSSRIGLRRDAIPIFEETNVFDLINDLSYKPFCVLVDECQFLNKHHVIEFARIVDELDIPVMAFGLKNDFRNELFEGSKYLLLYADKLEELKTICWFCHKKATMNLHYIDGNPVYEGDQVQIGGNEAYYPVCRKHYFHPKTVNEEQ”: “not soluble”.

In the case of “MTEHPRAHTAHLRTARLELTPLDPAADARHLHHAYGDEEVMRWWTRPACADPAETERYLTSCAAAPGARLWTIRAPDGTVPGMAGLLGGTDVPGLTWLLRRDSWGHGYATEAAAAVVGHALEDGGLDRVEAWIEAGNRRSLAVAARVGLTERARLAQHYPHRPGPHEMVVLGKARAEEPLTTLAVITELPVRDVAATLRLVEAALGARTAFAIGDPPEFAEAALTPWSAGPRFRLAAVPGPGPVEPVRLHLDAAGTADSLHRRAVDAGARVDGPPVRRPWGRSEFVITLPEGHELTVSAPV”, the “soluble on expression in E. coli” value was “soluble”.

With “MCYHLIIDSFIDRISRMHTQRGLEVTTGSIEAVDSINYFHEQVLSSGQNAIQILDSAKKHTDNLLIQTYAAAFYLYAQEDVANEQASDYLQSAFRLLTSANEREKLIFEAVTNWSKRDYANAISLLVTLLERYPRDTLALKFMEWLFYCTGQAFNAEYFLKVCDKCAPENQDESHFLAIHSFALELCGQYSKAKEMAEEAITMNLLTPWAHHTLAHVHLLTSDITGGINRLRDLQKTWEDILPLLKGHNTWHLALFYLANRNEEEVKKLYPHISGALPDTVLEQLDTISLLWRMDMAGLPQDRLLNQVVDHLSTHPLEYYTGFTNAHFIYCLVKSGYKNEADESLKRMKFYACSPSSDALWGDVVLPLCQGIYAFADADYKTALMLMEPVIGECAQLGGSDAQIELFFQTYLLVLIHNKQKDKALQFFTEHLKYYNNTPLSDWWFQSANKA”, the “soluble on expression in E. coli” value is recorded as “not soluble”.

Turning to “MGSDKIHHHHHHMRLYTRTGDKGKTSVIGGRLAKDDTRVVAYGTTDELNSFVGSAITQLDENTFADIRGELFKIQHELFDCGGDLAMLKVKEDRPYKAKQEIVDFLEQRIDAYIKEAPELERFILPGGSEAAASLHVCRTIARRAERYVVRLQQEGEINPIVLKYLNRLSDYFFAVARVVNSRLQVPDVEYERSAIVFREGKRKEDKK”, the “soluble on expression in E. coli” value is reported as “soluble”. Under “SATSKLQALWNHPAGPKTIHFWAPTFKWGISIANIADFQKPPENISYLQQIAVTCTGMIWCRCSTIITPKNWNLFSVNVAMAATGIYQLTRKIKYDYVSEAEAAVEIEG” stands “soluble”; under “MSLSIPDRRAKLDRAHGVLSIRRQCRLLGLSRSSVYRTPLPANDDDLALMRRIDELFTARPFLGSRRMAWLISEDGVRINRKRVQRLMRKMGIEALGPKPRTSKPAPGHRIYPYLLRAMTIDRPNQVWATDITYIPMGRGFLYLVAVIDWASRAVLSWRLSNTMDVSFCVDALEEALSRFGKPQIFNTDQGSQFTSAAFTSVLEAAGIQISMDGRGRWMDNVFIERLWRSLKHEDVYLKFNEGHHHHHH”, “not soluble”. Turning to “MSLEAKMEQIYQQIADTLVNIVPEEWKQILLYAEYREGYKKIFFYYYPETRIKPVYSLDITDLFHMNEDKYHELENKLYHCFSRLWEEFKEQEQQQWTNLTYTLDNTGRMKINYGYEDLFELSPVEKQEKWEAEYLEQEIEEGHHHHHH”, the “soluble on expression in E. coli” value is reported as “soluble”. Under “MINMKFFNRVEEIKEILSILEEEPNLIYFIYGPINSGKTALINEIINNRLDKNKYVVFYIDLREIFISKYDEFEAKLRATKTFGFRLIIEVLFEEYEDDKKPIEIIRSLIKDAPSLCGIPTPKNTLEEILKKKTTKNVFKYITNILMDIKREGKQPIIIIDELQKIGDMKINGFLIYELFNYFVSLTKHKHLCHVFCLSSDSLFIERVYNEAMLKERVDYILVDDFDKETALKFIDFLSEEILNKKLSDEDKELIYSYVGGKPILIINVIGKLKHKNLKDVLNILLMDEISKLKDFLSNLDYIKPKVNIEEEIIEIRKEDIINALKLFKGKYEIEVDKIPKAVYVYLVKKNILFLYPQRGTLKPQSFLVWNAIKRVL” stands “not soluble”; under “MAEAVLRVARRQLSQRGGSGAPILLRQMFEPVSCTFTYLLGDRESREAVLIDPVLETAPRDAQLIKELGLRLLYAVNTHCHADHITGSGLLRSLLPGCQSVISRLSGAQADLHIEDGDSIRFGRFALETRASPGHTPGCVTFVLNDHSMAFTGDALLIRGCGRTDFQQGCAKTLYHSVHEKIFTLPGDCLIYPAHDYHGFTVSTVEEERTLNPRLTLSCEEFVKIMGNLNLPKPQQIDFAVPANMRCGVQTPTALEHHHHHH”, “soluble”. The same measure for “MNLKDPICAIATPPGKGAIGVVRLSGEGALEIAARVWRGKDPRRLKGGRFALGEVVDPKTGEAIDQAILLVFRAPRSYTGEDLVEFQTHGSPAVLRRVMEVLVAEGARPAGRGEFTFRAYLNGKMDLAQAEAVLALIEAEGELARRQALRALEGALSRRIEALENRLLNLLAHIQALLDYPEEGVEPLEAERTIREVLAEVEALLAQAKASRLAQKGARLALIGAPNAGKSSLLNALLGYERALVSPIPGTTRDYLEAPLELFGIPLVAVDTAGVRETEDPVERMGVERALGIAEEADLVLYVVDRSQPKPAPPPLPWARTLKVATKSDLPPAWEDPEFLPVSSLTGEGLDRLKEAVREALLGREGGEVLLTERQVEALLRARERLEEALSLPEDLMGLALEEAARALALLTGKEVAEEVVARVFQNFCVGK”: “soluble”; for “MRYADRVTFVKTTDEQYNPDLGEYTHTEVISITKPCFVMDMGMEKSVQIFGDYQKDRKVIYLKQPYTKAFDYCEYEGRRYKTQANKLGAIVFYLEGDDSIGG”: “not soluble”.

Take “MISVVGAGGKTSLLFWLAELLQASGRRVLITTTTHMFMPTSHWPVVFCRDPAMLPHASLTSPISFCFHSWKANQGKVQGFTPEAIDALVQRPECDVILIEADGSRGMPLKAPDEHEPCIPKSSCCVIAVMGGHTLGAKVSTENVHRWSQFADITGLTPDATLQLSDLVALVRHPQGAFKNVPQGCRRVWFINRFSQCENAIAQSELLQPLQQHDVEAIWLGDIQEHPAIARRFVNLEHHHHHH”: the “soluble on expression in E. coli” value is “not soluble”. Regarding “MGSDKIHHHHHHMTAQNGQDVWHEDILDDSAIAVLSYPIGEMQRDQLHSHGYHQIAMCEQPGATLLLGSQVVSIPWNGALLVPSGTDHALTSETRCVIRCIYFKAALPSTSIGSLFLNRLTKELIKEISTSYVTERSRRLMEACLYDQIGQLLWSSGSGMMPPSRSLRVICKHIFDTPEDDTPVATLAKDAGLSERSLRRLARDELGCTISQIRTRCRIYKATQLLQAGVPVKLIAADVGYQSNSAFFSAFREIMGMSPARFQAECAASRSLSHLRLK”, the “soluble on expression in E. coli” value is “not soluble”. The same measure for “SLKQPVFKKVLQVGIVVHDLEKAVRTYADDFGIGPWQFYNLDKSNMHDMKMRGEKAEFSMKVAFTDLGGVQLELIEPLDESIYSDFLREHGEGIHHIACGVRNFEETMASMQKKDIKVLLEGTTSAGMGYVYLDTTDALSCITEIYRIPENLQYIPPDKTYEG”: “soluble”; for “MKNIIPQALLTMPILSTGLQAQEKQPTPNLVFIMADQYRGDAIGCIGKEPVKTPHLDKLASEGINFTNAISSYPVSSPARGMLMTGMYPIGSKVTGNCNSETAPYGVELSQNARCWSDVLKDQGYNMGYIGKWHLDAPYKPYVDTYNNRGKVAWNEWCPPERRHGFDHWIAYGTYDYHLKPMYWNTTAPRDSFYYVNQWGPEYEASKAIEYINGQKDQKQPFALVVSMNPPHTGYELVPDRYKEIYKDLDVEALCKGRPDIPAKGTEMGDYFRNNIRNYYACITGVDENVGRIIEALKQNNLFDNTIVVFTSDHGICMGAHENAGKDIFYEESMRIPMILSWPDQIKPRKSDPLMIAFADLYPTLLSMMGFSKEIPETVQTFDLSNEVLTGKNKKDLVQPYYFVKFDNHATGYRGLRTDRYTYAVHATDGKIDNVILFDRTNDPHEMNNIASQQLKLTHTFNRQLKTWLEKTNDPFAQYIKLKLEHHHHHH”: “soluble”.
